Patent publication US20210246166A1 (Bayer, published 2021)
Numbered stars: 1 amine (or outer) side, 2 acyl side, 3 side chain; on linkers, the order of the positions; unused ones are H or OH. Bridge positions count the residues as written; N and C are the ends. Square brackets hold non-standard residues; d marks the D form. Ends that are not written are not given here. * marks the point of attachment. X17 = 2‑((1S,2S)-1-(Amino)-2-methylbutyl)‑1,3‑oxazole‑4‑carboxylic acid, CC[C@H](C)[C@H](N[*:1])c1nc(C(=O)[*:2])co1; (3-Chloro-Ph)G = 3-chlorophenylglycine, O=C([C@@H](N[*:1])c1cccc(Cl)c1)[*:2]; Oic = O=C(O)[C@@H]1C[C@@H]2CCCC[C@@H]2N1; Phe(3-Br) = N[C@@H](Cc1cccc(Br)c1)C(=O)O; Cyclobutanecarbonyl = O=C(C1CCC1)*; tBuAla = CC(C)(C)C[C@H](N)C(=O)O; Pen = CC(C)(S)[C@H](N)C(=O)O; αMeP = C[C@@]1(C(=O)O)CCCN1; NMeC = CN[C@@H](CS)C(=O)O; NPhGly = O=C(O)CNc1ccccc1; Pip = O=C(O)[C@@H]1CCCCN1; NMeA = CN[C@@H](C)C(=O)O; Orn = NCCC[C@H](N)C(=O)O; Sar = CNCC(=O)O

T1: Recombinant human MASP1 enzyme (fragment corresponding to amino acids 297-699, C-terminal His Tag) (human, UniProt P48740 297-699)
T1 sequence: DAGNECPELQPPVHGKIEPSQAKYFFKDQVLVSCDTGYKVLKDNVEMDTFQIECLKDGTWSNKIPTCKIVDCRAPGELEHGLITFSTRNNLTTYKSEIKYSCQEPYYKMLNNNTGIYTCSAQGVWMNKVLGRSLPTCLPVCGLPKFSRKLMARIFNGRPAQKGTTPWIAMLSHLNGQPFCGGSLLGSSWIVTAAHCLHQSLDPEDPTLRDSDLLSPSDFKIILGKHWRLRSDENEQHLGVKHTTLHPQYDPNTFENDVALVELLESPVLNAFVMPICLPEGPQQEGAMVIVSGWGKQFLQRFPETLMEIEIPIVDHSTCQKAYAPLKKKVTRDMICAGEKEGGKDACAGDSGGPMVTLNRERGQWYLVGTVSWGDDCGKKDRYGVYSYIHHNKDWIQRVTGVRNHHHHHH

T2: recombinant human MASP1 active protease (amino acids 297-699, C-terminal His Tag) (human, UniProt P48740 297-699)
T2 sequence: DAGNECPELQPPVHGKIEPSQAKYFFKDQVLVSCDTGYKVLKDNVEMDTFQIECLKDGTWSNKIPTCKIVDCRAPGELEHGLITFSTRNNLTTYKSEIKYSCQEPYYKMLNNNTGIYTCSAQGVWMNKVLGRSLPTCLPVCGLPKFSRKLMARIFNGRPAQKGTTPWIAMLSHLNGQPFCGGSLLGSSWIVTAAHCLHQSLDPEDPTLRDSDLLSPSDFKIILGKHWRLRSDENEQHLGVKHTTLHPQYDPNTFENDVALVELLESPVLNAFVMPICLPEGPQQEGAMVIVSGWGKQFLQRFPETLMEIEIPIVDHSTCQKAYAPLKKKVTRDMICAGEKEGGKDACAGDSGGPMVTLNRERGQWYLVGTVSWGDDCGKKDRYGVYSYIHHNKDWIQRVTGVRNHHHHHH


Tests used:
Assay in all cases: cell-based or functional assay
[1] = molecular target: T1, Recombinant human MASP1 enzyme …
[2] = molecular target: Recombinant human MASP2 enzyme (fragment corresponding to amino acids 297-686, C-terminal His Tag) (human, UniProt O00187 297-686)
[3] = molecular target: recombinant rat MASP2 active protease (amino acids 296-685, C-terminal His Tag) (rat, UniProt Q9JJS8 296-685)
[4] = molecular target: T2, recombinant human MASP1 active protease …

Sequence of Recombinant human MASP2 enzyme (fragment corresponding to amino acids 297-686, C-terminal His Tag) (O00187 other isoform, or with tags, fused parts or gaps limits assumed): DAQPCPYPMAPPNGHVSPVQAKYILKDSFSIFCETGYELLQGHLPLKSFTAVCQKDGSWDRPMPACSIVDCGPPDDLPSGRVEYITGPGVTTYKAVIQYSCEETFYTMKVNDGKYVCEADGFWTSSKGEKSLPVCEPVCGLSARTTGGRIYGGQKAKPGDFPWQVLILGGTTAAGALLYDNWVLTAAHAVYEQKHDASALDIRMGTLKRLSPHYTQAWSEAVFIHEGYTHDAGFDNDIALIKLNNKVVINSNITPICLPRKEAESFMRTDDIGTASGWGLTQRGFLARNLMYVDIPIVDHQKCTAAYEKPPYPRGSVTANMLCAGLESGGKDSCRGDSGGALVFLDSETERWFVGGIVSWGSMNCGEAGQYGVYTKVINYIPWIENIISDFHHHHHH
Sequence of recombinant rat MASP2 active protease (amino acids 296-685, C-terminal His Tag) (Q9JJS8 other isoform, or with tags, fused parts or gaps limits assumed): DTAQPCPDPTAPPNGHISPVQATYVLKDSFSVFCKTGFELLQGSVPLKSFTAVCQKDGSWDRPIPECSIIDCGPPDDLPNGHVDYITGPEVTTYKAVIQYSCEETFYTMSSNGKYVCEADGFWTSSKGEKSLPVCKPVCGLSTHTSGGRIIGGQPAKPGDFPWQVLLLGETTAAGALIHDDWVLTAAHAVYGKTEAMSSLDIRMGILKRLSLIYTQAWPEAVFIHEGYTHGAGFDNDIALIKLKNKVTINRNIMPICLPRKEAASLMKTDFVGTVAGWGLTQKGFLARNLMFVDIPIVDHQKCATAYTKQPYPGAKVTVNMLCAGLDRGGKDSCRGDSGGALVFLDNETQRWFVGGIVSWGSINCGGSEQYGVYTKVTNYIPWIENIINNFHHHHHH

| Binder | human MASP1 IC50 [1] | human MASP2 IC50 [2] | rat MASP2 IC50 [3] | human MASP1 IC50 [4] |
| --- | --- | --- | --- | --- |
| AICSRSLP[Oic]I[Pen]IPD-OH (disulfide 3-11) [Example 5: AIC+SRSLP-(Oic)-I-(Pen)+IPD-OH (salt free form)] | – | – | 49 nM | – |
| {Tetrahydro‑2H‑pyran‑3‑ylacetic acid}-ICSRSLP[Oic]I[Pen]IP-NH2 (disulfide 2-10) [(Tetrahydro-2H-pyran-3-ylacetic acid)-IC+SRSLP-(Oic)-I-(Pen)+IP-NH2] | 17 nM | 12 nM | – | – |
| [NPhGly]ICSRS[tBuAla]PPI[NMeC]I-NH2 (disulfide 3-11; N-terminus assumed; SMILES CC[C@H](C)[C@H](NC(=O)[C@@H]1CSSC[C@H](NC(=O)[C@@H](NC(=O)CNc2ccccc2)[C@@H](C)CC)C(=O)N[C@@H](CO)C(=O)N[C@@H](CCCNC(=N)N)C(=O)N[C@@H](CO)C(=O)N[C@@H](CC(C)(C)C)C(=O)N2CCC[C@H]2C(=O)N2CCC[C@H]2C(=O)N[C@@H]([C@@H](C)CC)C(=O)N1C)C(N)=O) [((N-Ph)G)-IC+SRS-((tBu)A)-PPI-((N-Me)C)+I-NH2] | 18 nM | 42 nM | – | – |
| [NMeA]ICSRSLPPICIPD-NH2 (disulfide 3-11; N-terminus assumed; SMILES CC[C@H](C)[C@H](NC(=O)[C@H](C)NC)C(=O)N[C@H]1CSSC[C@@H](C(=O)N[C@H](C(=O)N2CCC[C@H]2C(=O)N[C@@H](CC(=O)O)C(N)=O)[C@@H](C)CC)NC(=O)[C@H]([C@@H](C)CC)NC(=O)[C@@H]2CCCN2C(=O)[C@@H]2CCCN2C(=O)[C@H](CC(C)C)NC(=O)[C@H](CO)NC(=O)[C@H](CCCNC(=N)N)NC(=O)[C@H](CO)NC1=O) [((N-Me)A)-IC+SRSLPPIC+IPD-NH2] | 18 nM | 500 nM | – | – |
| [Sar]ICSRSLPPICI[αMeP]D-OH (disulfide 3-11; N-terminus assumed; SMILES CC[C@H](C)[C@H](NC(=O)CNC)C(=O)N[C@H]1CSSC[C@@H](C(=O)N[C@H](C(=O)N2CCC[C@@]2(C)C(=O)N[C@@H](CC(=O)O)C(=O)O)[C@@H](C)CC)NC(=O)[C@H]([C@@H](C)CC)NC(=O)[C@@H]2CCCN2C(=O)[C@@H]2CCCN2C(=O)[C@H](CC(C)C)NC(=O)[C@H](CO)NC(=O)[C@H](CCCNC(=N)N)NC(=O)[C@H](CO)NC1=O) [((N-Me)G)-IC+SRSLPP-IC+I-((2-Me)P)-D-OH] | 16 nM | 160 nM | – | – |
| [Orn]ICSRS[tBuAla]PPI[NMeC][X17]D-NH2 (disulfide 3-11; N-terminus assumed; SMILES CC[C@H](C)[C@H](NC(=O)[C@@H](N)CCCN)C(=O)N[C@H]1CSSC[C@@H](C(=O)N[C@H](c2nc(C(=O)N[C@@H](CC(=O)O)C(N)=O)co2)[C@@H](C)CC)N(C)C(=O)[C@H]([C@@H](C)CC)NC(=O)[C@@H]2CCCN2C(=O)[C@@H]2CCCN2C(=O)[C@H](CC(C)(C)C)NC(=O)[C@H](CO)NC(=O)[C@H](CCCNC(=N)N)NC(=O)[C@H](CO)NC1=O) | 18 nM | 910 nM | – | – |
| Cyclobutanecarbonyl-ICSRS[tBuAla]PPI[NMeC]I-NH2 (disulfide 2-10; SMILES CC[C@H](C)[C@H](NC(=O)[C@@H]1CSSC[C@H](NC(=O)[C@@H](NC(=O)C2CCC2)[C@@H](C)CC)C(=O)N[C@@H](CO)C(=O)N[C@@H](CCCNC(=N)N)C(=O)N[C@@H](CO)C(=O)N[C@@H](CC(C)(C)C)C(=O)N2CCC[C@H]2C(=O)N2CCC[C@H]2C(=O)N[C@@H]([C@@H](C)CC)C(=O)N1C)C(N)=O) [(Cyclobutanecarboxylic)-IC+SRS-((tBu)A)-PPI-((N-Me)C)+I-NH2] | 18 nM | 19 nM | – | – |
| GICSRSL[Pip]PICID-OH (disulfide 3-11; N-terminus assumed; SMILES CC[C@H](C)[C@H](NC(=O)CN)C(=O)N[C@H]1CSSC[C@@H](C(=O)N[C@H](C(=O)N[C@@H](CC(=O)O)C(=O)O)[C@@H](C)CC)NC(=O)[C@H]([C@@H](C)CC)NC(=O)[C@@H]2CCCN2C(=O)[C@@H]2CCCCN2C(=O)[C@H](CC(C)C)NC(=O)[C@H](CO)NC(=O)[C@H](CCCNC(=N)N)NC(=O)[C@H](CO)NC1=O) [Example 401: GIC+SRSL-(Pip)-PIC+ID-OH] | – | – | – | 56 nM |
| AICSRSLP[Oic]ICI-OH (disulfide 3-11; N-terminus assumed; SMILES CC[C@H](C)[C@H](NC(=O)[C@@H]1CSSC[C@H](NC(=O)[C@@H](NC(=O)[C@H](C)N)[C@@H](C)CC)C(=O)N[C@@H](CO)C(=O)N[C@@H](CCCNC(=N)N)C(=O)N[C@@H](CO)C(=O)N[C@@H](CC(C)C)C(=O)N2CCC[C@H]2C(=O)N2[C@@H](C[C@@H]3CCCC[C@@H]32)C(=O)N[C@@H]([C@@H](C)CC)C(=O)N1)C(=O)O) [AIC+SRSLP-(Oic)-IC+I-OH] | 16 nM | 930 nM | – | – |
| AICSRSLPP[(3-Chloro-Ph)G]CIPD-NH2 (disulfide 3-11; N-terminus assumed; SMILES CC[C@H](C)[C@H](NC(=O)[C@H](C)N)C(=O)N[C@H]1CSSC[C@@H](C(=O)N[C@H](C(=O)N2CCC[C@H]2C(=O)N[C@@H](CC(=O)O)C(N)=O)[C@@H](C)CC)NC(=O)[C@H](c2cccc(Cl)c2)NC(=O)[C@@H]2CCCN2C(=O)[C@@H]2CCCN2C(=O)[C@H](CC(C)C)NC(=O)[C@H](CO)NC(=O)[C@H](CCCNC(=N)N)NC(=O)[C@H](CO)NC1=O) [AIC+SRSLPP-((3-Chloro-Ph)G)-C+IPD-NH2] | 19 nM | 1400 nM | – | – |
| [Sar]ICSRSLPPICIPN-OH (disulfide 3-11; N-terminus assumed; SMILES CC[C@H](C)[C@H](NC(=O)CNC)C(=O)N[C@H]1CSSC[C@@H](C(=O)N[C@H](C(=O)N2CCC[C@H]2C(=O)N[C@@H](CC(N)=O)C(=O)O)[C@@H](C)CC)NC(=O)[C@H]([C@@H](C)CC)NC(=O)[C@@H]2CCCN2C(=O)[C@@H]2CCCN2C(=O)[C@H](CC(C)C)NC(=O)[C@H](CO)NC(=O)[C@H](CCCNC(=N)N)NC(=O)[C@H](CO)NC1=O) [Example 394: ((N-Me)G)-IC+SRSLPPIC+IPN-OH] | – | – | – | 52 nM |
| [Phe(3-Br)]ICSRS[tBuAla]PPI[Pen]IPD-NH2 (disulfide 3-11; N-terminus assumed; SMILES CC[C@H](C)[C@H](NC(=O)[C@@H](N)Cc1cccc(Br)c1)C(=O)N[C@H]1CSSC(C)(C)[C@@H](C(=O)N[C@H](C(=O)N2CCC[C@H]2C(=O)N[C@@H](CC(=O)O)C(N)=O)[C@@H](C)CC)NC(=O)[C@H]([C@@H](C)CC)NC(=O)[C@@H]2CCCN2C(=O)[C@@H]2CCCN2C(=O)[C@H](CC(C)(C)C)NC(=O)[C@H](CO)NC(=O)[C@H](CCCNC(=N)N)NC(=O)[C@H](CO)NC1=O) [Example 330: ((3-Bromo)F)-IC+SRS-((tBu)A)-PPI-(Pen)+IPD-NH2] | – | – | – | 24 nM |

Next, values leading:

| human MASP1 IC50 [1] | human MASP2 IC50 [2] | rat MASP2 IC50 [3] | human MASP1 IC50 [4] | Binder |
| --- | --- | --- | --- | --- |
| 17 nM | 603 nM | – | – | ICSRSLP[Oic]I[Pen]IPD-NH2 (disulfide 2-10; N-terminus assumed; SMILES CC[C@H](C)[C@H](N)C(=O)N[C@H]1CSSC(C)(C)[C@@H](C(=O)N[C@H](C(=O)N2CCC[C@H]2C(=O)N[C@@H](CC(=O)O)C(N)=O)[C@@H](C)CC)NC(=O)[C@H]([C@@H](C)CC)NC(=O)[C@@H]2C[C@@H]3CCCC[C@@H]3N2C(=O)[C@@H]2CCCN2C(=O)[C@H](CC(C)C)NC(=O)[C@H](CO)NC(=O)[C@H](CCCNC(=N)N)NC(=O)[C@H](CO)NC1=O) [IC+SRSLP-(Oic)-I-(Pen)+IPD-NH2] |
| 19 nM | 500 nM | – | – | ICSRS[tBuAla]PPI[Pen]IPP-NH2 (disulfide 2-10; N-terminus assumed; SMILES CC[C@H](C)[C@H](N)C(=O)N[C@H]1CSSC(C)(C)[C@@H](C(=O)N[C@H](C(=O)N2CCC[C@H]2C(=O)N2CCC[C@H]2C(N)=O)[C@@H](C)CC)NC(=O)[C@H]([C@@H](C)CC)NC(=O)[C@@H]2CCCN2C(=O)[C@@H]2CCCN2C(=O)[C@H](CC(C)(C)C)NC(=O)[C@H](CO)NC(=O)[C@H](CCCNC(=N)N)NC(=O)[C@H](CO)NC1=O) [IC+SRS-((tBu)A)-PPI-(Pen)+IPP-NH2] |
| – | – | – | 2 nM | AICSRSLP[Oic]I[Pen]IPD-OH (disulfide 3-11; also: sodium salt) [Example 431: AIC+SRSLP-(Oic)-I-(Pen)+IPD-OH (sodium salt)] |
| 16 nM | 81 nM | – | – | FICSRSLP[Oic]I[Pen]IP-NH2 (disulfide 3-11; N-terminus assumed; SMILES CC[C@H](C)[C@H](NC(=O)[C@@H](N)Cc1ccccc1)C(=O)N[C@H]1CSSC(C)(C)[C@@H](C(=O)N[C@H](C(=O)N2CCC[C@H]2C(N)=O)[C@@H](C)CC)NC(=O)[C@H]([C@@H](C)CC)NC(=O)[C@@H]2C[C@@H]3CCCC[C@@H]3N2C(=O)[C@@H]2CCCN2C(=O)[C@H](CC(C)C)NC(=O)[C@H](CO)NC(=O)[C@H](CCCNC(=N)N)NC(=O)[C@H](CO)NC1=O) [FIC+SRSLP-(Oic)-I-(Pen)+IP-NH2] |
| – | – | – | 2.7 nM | AICSRSLP[Oic]I[Pen]IPD-OH (disulfide 3-11; also: choline salt) [Example 432: AIC+SRSLP-(Oic)-I-(Pen)+IPD-OH (choline-salt)] |
